In patent CN116715774A (WUHAN ABCLONAL INC, dated 2023):

T1: 重组人AXL蛋白 (recombinant human AXL protein) (human, UniProt P30530 26-449, limits assumed)
T1 construct: also called 重组人AXL截短蛋白; 人受体酪氨酸激酶AXL
T1 sequence (looked up): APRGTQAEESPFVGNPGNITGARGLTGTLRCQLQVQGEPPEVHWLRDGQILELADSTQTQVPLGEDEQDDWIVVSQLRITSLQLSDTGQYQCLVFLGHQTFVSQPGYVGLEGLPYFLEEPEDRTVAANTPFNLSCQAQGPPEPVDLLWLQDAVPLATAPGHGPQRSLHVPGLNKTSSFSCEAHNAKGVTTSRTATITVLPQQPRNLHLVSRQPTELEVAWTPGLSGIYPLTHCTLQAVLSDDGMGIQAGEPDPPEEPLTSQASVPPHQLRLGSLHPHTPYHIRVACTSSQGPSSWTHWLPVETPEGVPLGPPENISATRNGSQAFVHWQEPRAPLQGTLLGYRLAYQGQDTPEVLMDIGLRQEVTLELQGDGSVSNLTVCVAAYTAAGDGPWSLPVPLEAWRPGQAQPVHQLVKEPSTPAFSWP


Target: T1, 重组人AXL蛋白 (recombinant human AXL protein)
Assay: BLI (Gator biomolecular interaction analyser), antibody against recombinant human AXL

Row | Kd | koff | kon | Binder
1 | 1.14 nM | 0.000387 s⁻¹ | 341000 M⁻¹ s⁻¹ | 兔单克隆抗体B (rabbit monoclonal antibody B against human AXL) (antibody, V domains shown, also called 抗人AXL兔单克隆抗体B) VH: QEQLKESGGGLVQPGGSLKLSCKASGFSLSYYGVNWVRQAPGKGLEWIACIDPVFGATYYASWVNDRFTISSHNAQNTLYLQLSSLTPADTATYFCARGRYYRYGYTYATGMDIWGPGTLVTVSS VL: AIDMTQTPSSVSAAVGDTVTINCQASEDIYSFLAWYQQKPGHSPKLLIYDASKLASGVSSRFKGSGSGTQFTLTISGVQCDDAATYYCQQTYSVSNADTAFGGGTEVVVKG
2 | 0.555 nM | 0.000132 s⁻¹ | 237000 M⁻¹ s⁻¹ | 兔单克隆抗体A (rabbit monoclonal antibody A against human AXL) (antibody, V domains shown, also called 抗人AXL兔单克隆抗体A) VH: QSVEESGGRLVTPGTPLTLTCTVSGIDLSTYAMIWVRQAPGEGLEWIGTIYTDGATAYARWAKGRFTISKTSTTVDLKMTSLTTEDTATYFCARGFGISKFVFSLWGPGTLVTVSL VL: DIVMTQTPASVEAAVGDTVTIKCQASQNIYSNLAWYQQKPGQPPKLLIYFASNLPSGVPSRFKGSGSGTEYTLTISGVQCDDAATYYCQNYYINEIVFGGGTEVVVKG
